Test results taken from IntAct's records for PubMed 22982544.

B1: Autophagy-related protein (Plasmodium falciparum (isolate 3D7)), Q8IJK2 (parent)
chain: MPSLKDEVSFENRVAETHKIRSKYPNRIPVVCERANRSNLPIIEKKKFLVPMNMLVGEFKFILHQHINQSAYGSNMKLFRERTIYLFVNNIVPKTGLLMQDLYEMYKDEDGYLYMEYSCESCLG
B2: - (Plasmodium falciparum (isolate 3D7)), C0H519 (parent)
chain: MSDQINVKHKIGDTCRKLYSYFKTVNNTSTFIQNGTLTPSEFVDSGDFLVYKFKTWEWQEADKDRVVPYLPENKQFLITKNVPCKQRIKDLNNIVHDLKIVDNDWLLPSYEEDNNPTDIYEYLPNSEYTINDKNIYNYEEEEEDDNCDEAIDINNFYMENNLIKEHDPASINSTSCYSKNMLHDNLMKIRTYDVSITYDKYYQTPRIWLFGYNENGDPLKSEEIFEDILSDYSYKTVTYDPHPCTGVMTASIHPCKHAEAILNVVNNWISEEKEPRHDLYLLFLLKFISGVIPTIEYDFTTDIEIPRDSNAGL

Variants of: B1
Settings: with c0h519, C0H519

Variant	effect of a mutation on the interaction
K47E	disrupting interaction
K19E;K47E	disrupting interaction
R27E	disrupting interaction
L49A	decreasing interaction
E44A;K45S;K46A	decreasing interaction

Variants of: B2
Settings: with q8ijk2, Q8IJK2

Variant	effect of a mutation on the interaction
W105A	decreasing interaction
